The record followed here is US20230346919A1.

For this experiment, the target named is SARS-CoV-2 spike SΔ21 displayed on VSV-eGFP-SARS-CoV-2-SΔ21 particles (SARS-CoV-2 isolate Wuhan-Hu-1) (UniProt P0DTC2). The experiment is described as follows: cell-based or functional assay.

mAb S309 (antibody): the EC50, neutralization of VSV-SARS-CoV-2-SΔ21 (GRNT, Vero E6 cells) was determined as 0.067 µg/mL.
